Experimental data published in US20250186594A1.

Tests used:
[1] = biological target: IL-18 variant SEQ ID NO: 57 (E6K, C38S, K53A) (human) (UniProt Q14116)
[2] = biological target: Native IL-18 wild-type (SEQ ID NO: 1, native sequence) (human) (UniProt Q14116)
[3] = biological target: IL-18 variant SEQ ID NO: 205 (V11I, C38A, K53A, T63A, C76A, C127A) (human) (UniProt Q14116); test: cell-based or functional assay
[4] = biological target: IL-18 variant SEQ ID NO: 206 (V11I, C38A, K53A, S55A, C76A, C127A) (human) (UniProt Q14116); test: cell-based or functional assay
[5] = biological target: IL-18 variant SEQ ID NO: 208 (V11I, C38A, K53A, D54A, C76A, C127A) (human) (UniProt Q14116); test: cell-based or functional assay
[6] = biological target: IL-18 variant SEQ ID NO: 209 (F2A, V11I, C38A, K53A, C76A, C127A) (human) (UniProt Q14116); test: cell-based or functional assay
[7] = biological target: IL-18 variant SEQ ID NO: 213 (V11I, S36A, C38A, K53A, C76A, C127A) (human) (UniProt Q14116); test: cell-based or functional assay
[8] = biological target: IL-18 variant SEQ ID NO: 217 (V11I, C38A, N41A, K53A, C76A, C127A) (human) (UniProt Q14116); test: cell-based or functional assay
[9] = biological target: IL-18 variant SEQ ID NO: 218 (V11I, C38A, K53A, C76A, C127A, D132A) (human) (UniProt Q14116); test: cell-based or functional assay
[10] = biological target: IL-18 variant SEQ ID NO: 219 (V11I, C38A, K53A, C76A, G108A, C127A) (human) (UniProt Q14116); test: cell-based or functional assay
[11] = biological target: IL-18 variant SEQ ID NO: 220 (V11I, C38A, K53A, C76A, H109A, C127A) (human) (UniProt Q14116); test: cell-based or functional assay
[12] = biological target: IL-18 variant SEQ ID NO: 222 (K8R, V11I, C38A, C76A, Q103E, C127A) (human) (UniProt Q14116); test: cell-based or functional assay
[13] = biological target: IL-18 variant SEQ ID NO: 226 (V11I, C38A, S55R, C76A, C127A) (human) (UniProt Q14116); test: cell-based or functional assay
[14] = biological target: IL-18 variant SEQ ID NO: 30 (E6K, V11I, C38A, K53A, T63A, C76A, C127A) (human) (UniProt Q14116); test: cell-based or functional assay
[15] = biological target: IL-18 variant SEQ ID NO: 30 with 10 kDa PEG (E6K, V11I, C38A, K53A, T63A, C76A, C127A, C68-10kPEG) (human) (UniProt Q14116); test: cell-based or functional assay
[16] = biological target: IL-18 variant SEQ ID NO: 30 with 5 kDa PEG (E6K, V11I, C38A, K53A, T63A, C76A, C127A, C68-5kPEG) (human) (UniProt Q14116); test: cell-based or functional assay
[17] = biological target: IL-18 variant SEQ ID NO: 4 (E6K, C38A, K53A, C68A, M86C) (human) (UniProt Q14116); test: cell-based or functional assay
[18] = biological target: IL-18 variant SEQ ID NO: 5 (E6K, V11I, C38A, K53A, T63A, C68A, C76A, M86C, C127A) (human) (UniProt Q14116); test: cell-based or functional assay
[19] = biological target: IL-18 variant SEQ ID NO: 5 with 30 kDa PEG (E6K, V11I, C38A, K53A, T63A, C68A, C76A, C127A, M86C-30kPEG) (human) (UniProt Q14116); test: cell-based or functional assay
[20] = biological target: IL-18 variant SEQ ID NO: 57 with 30 kDa PEG (E6K, C38S, K53A, C68-30kDPEG) (human) (UniProt Q14116); test: cell-based or functional assay
[21] = biological target: IL-18 variant SEQ ID NO: 59 (E6K, C38A, K53A) (human) (UniProt Q14116); test: cell-based or functional assay
[22] = biological target: IL-18 variant SEQ ID NO: 59 with 10 kDa PEG (E6K, C38A, K53A, C68-10kPEG) (human) (UniProt Q14116); test: cell-based or functional assay
[23] = biological target: IL-18 variant SEQ ID NO: 6 with 30 kDa PEG (E6K, V11I, C38A, K53A, T63A, C68A, C76A, C127A, D98C-30kPEG) (human) (UniProt Q14116); test: cell-based or functional assay
[24] = biological target: IL-18 variant SEQ ID NO: 60 with 30 kDa PEG (E6K, C38Q, K53A, C68-30kPEG) (human) (UniProt Q14116); test: cell-based or functional assay
[25] = biological target: IL-18 variant SEQ ID NO: 61 (E6K, C38A, K53A, C76A) (human) (UniProt Q14116); test: cell-based or functional assay
[26] = biological target: IL-18 variant SEQ ID NO: 61 with 30 kDa PEG (E6K, C38A, K53A, C76A, C68-30kPEG) (human) (UniProt Q14116); test: cell-based or functional assay
[27] = biological target: IL-18 variant SEQ ID NO: 62 with 30 kDa PEG (E6K, C38A, K53A, C127A, C68-30kPEG) (human) (UniProt Q14116); test: cell-based or functional assay
[28] = biological target: IL-18 variant SEQ ID NO: 9 with 30 kDa PEG (E6K, C38A, K53A, C68A, D98C-30kPEG) (human) (UniProt Q14116); test: cell-based or functional assay
[29] = biological target: Native IL-18 wild-type (SEQ ID NO: 1, native sequence) (human) (UniProt Q14116); test: cell-based or functional assay

Sequence of Native IL-18 wild-type (SEQ ID NO: 1, native sequence) (human) (Q14116 37-193): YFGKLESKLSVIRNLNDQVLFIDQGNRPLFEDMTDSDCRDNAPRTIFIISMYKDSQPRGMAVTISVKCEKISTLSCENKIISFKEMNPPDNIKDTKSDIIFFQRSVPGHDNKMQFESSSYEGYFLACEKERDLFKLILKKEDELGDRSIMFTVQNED
Sequence of IL-18 variant SEQ ID NO: 205 (V11I, C38A, K53A, T63A, C76A, C127A) (human) (Q14116 37-193 V47I/C74A/K89A/T99A/C112A/C163A): as the sequence (Q14116 37-193) above, with V11I, C38A, K53A, T63A, C76A, C127A counted along it
Sequence of IL-18 variant SEQ ID NO: 220 (V11I, C38A, K53A, C76A, H109A, C127A) (human) (Q14116 37-193 V47I/C74A/K89A/C112A/H145A/C163A): as the sequence (Q14116 37-193) above, with V11I, C38A, K53A, C76A, H109A, C127A counted along it
Sequence of IL-18 variant SEQ ID NO: 218 (V11I, C38A, K53A, C76A, C127A, D132A) (human) (Q14116 37-193 V47I/C74A/K89A/C112A/C163A/D168A): as the sequence (Q14116 37-193) above, with V11I, C38A, K53A, C76A, C127A, D132A counted along it
Sequence of IL-18 variant SEQ ID NO: 62 with 30 kDa PEG (E6K, C38A, K53A, C127A, C68-30kPEG) (human) (Q14116 other isoform, or with tags, fused parts or gaps C38A K53A C127A C38A K53A C127A): as the sequence (Q14116 37-193) above, with E6K, C38A, K53A, C127A counted along it
Sequence of IL-18 variant SEQ ID NO: 60 with 30 kDa PEG (E6K, C38Q, K53A, C68-30kPEG) (human) (Q14116 other isoform, or with tags, fused parts or gaps C38Q K53A C38Q K53A): as the sequence (Q14116 37-193) above, with E6K, C38Q, K53A counted along it
Sequence of IL-18 variant SEQ ID NO: 208 (V11I, C38A, K53A, D54A, C76A, C127A) (human) (Q14116 37-193 V47I/C74A/K89A/D90A/C112A/C163A): as the sequence (Q14116 37-193) above, with V11I, C38A, K53A, D54A, C76A, C127A counted along it
Sequence of IL-18 variant SEQ ID NO: 209 (F2A, V11I, C38A, K53A, C76A, C127A) (human) (Q14116 other isoform, or with tags, fused parts or gaps V11I C38A K53A C76A C127A V11I C38A K53A C76A C127A): as the sequence (Q14116 37-193) above, with F2A, V11I, C38A, K53A, C76A, C127A counted along it
Sequence of IL-18 variant SEQ ID NO: 9 with 30 kDa PEG (E6K, C38A, K53A, C68A, D98C-30kPEG) (human) (Q14116 other isoform, or with tags, fused parts or gaps C38A K53A C68A D98C C38A K53A C68A D98C): as the sequence (Q14116 37-193) above, with E6K, C38A, K53A, C68A, D98C counted along it
Sequence of IL-18 variant SEQ ID NO: 217 (V11I, C38A, N41A, K53A, C76A, C127A) (human) (Q14116 37-193 V47I/C74A/N77A/K89A/C112A/C163A): as the sequence (Q14116 37-193) above, with V11I, C38A, N41A, K53A, C76A, C127A counted along it
Sequence of IL-18 variant SEQ ID NO: 206 (V11I, C38A, K53A, S55A, C76A, C127A) (human) (Q14116 37-193 V47I/C74A/K89A/S91A/C112A/C163A): as the sequence (Q14116 37-193) above, with V11I, C38A, K53A, S55A, C76A, C127A counted along it
Sequence of IL-18 variant SEQ ID NO: 59 with 10 kDa PEG (E6K, C38A, K53A, C68-10kPEG) (human) (Q14116 other isoform, or with tags, fused parts or gaps C38A K53A C38A K53A): as the sequence (Q14116 37-193) above, with E6K, C38A, K53A counted along it
Sequence of IL-18 variant SEQ ID NO: 59 (E6K, C38A, K53A) (human) (Q14116 other isoform, or with tags, fused parts or gaps C38A K53A C38A K53A): as the sequence (Q14116 37-193) above, with E6K, C38A, K53A counted along it
Sequence of IL-18 variant SEQ ID NO: 61 (E6K, C38A, K53A, C76A) (human) (Q14116 other isoform, or with tags, fused parts or gaps C38A K53A C76A C38A K53A C76A): as the sequence (Q14116 37-193) above, with E6K, C38A, K53A, C76A counted along it
Sequence of IL-18 variant SEQ ID NO: 61 with 30 kDa PEG (E6K, C38A, K53A, C76A, C68-30kPEG) (human) (Q14116 other isoform, or with tags, fused parts or gaps C38A K53A C76A C38A K53A C76A): as the sequence (Q14116 37-193) above, with E6K, C38A, K53A, C76A counted along it
Sequence of IL-18 variant SEQ ID NO: 57 (E6K, C38S, K53A) (human) (Q14116 other isoform, or with tags, fused parts or gaps C38S K53A C38S K53A): as the sequence (Q14116 37-193) above, with E6K, C38S, K53A counted along it
Sequence of IL-18 variant SEQ ID NO: 57 with 30 kDa PEG (E6K, C38S, K53A, C68-30kDPEG) (human) (Q14116 other isoform, or with tags, fused parts or gaps C38S K53A C38S K53A): as the sequence (Q14116 37-193) above, with E6K, C38S, K53A counted along it
Sequence of IL-18 variant SEQ ID NO: 5 (E6K, V11I, C38A, K53A, T63A, C68A, C76A, M86C, C127A) (human) (Q14116 other isoform, or with tags, fused parts or gaps with the stated changes): as the sequence (Q14116 37-193) above, with E6K, V11I, C38A, K53A, T63A, C68A, C76A, M86C, C127A counted along it
Sequence of IL-18 variant SEQ ID NO: 5 with 30 kDa PEG (E6K, V11I, C38A, K53A, T63A, C68A, C76A, C127A, M86C-30kPEG) (human) (Q14116 other isoform, or with tags, fused parts or gaps with the stated changes): as the sequence (Q14116 37-193) above, with E6K, V11I, C38A, K53A, T63A, C68A, C76A, M86C, C127A counted along it
Sequence of IL-18 variant SEQ ID NO: 226 (V11I, C38A, S55R, C76A, C127A) (human) (Q14116 37-193 V47I/C74A/S91R/C112A/C163A): as the sequence (Q14116 37-193) above, with V11I, C38A, S55R, C76A, C127A counted along it
Sequence of IL-18 variant SEQ ID NO: 4 (E6K, C38A, K53A, C68A, M86C) (human) (Q14116 other isoform, or with tags, fused parts or gaps C38A K53A C68A M86C C38A K53A C68A M86C): as the sequence (Q14116 37-193) above, with E6K, C38A, K53A, C68A, M86C counted along it
Sequence of IL-18 variant SEQ ID NO: 222 (K8R, V11I, C38A, C76A, Q103E, C127A) (human) (Q14116 other isoform, or with tags, fused parts or gaps V11I C38A C76A Q103E C127A V11I C38A C76A Q103E C127A): as the sequence (Q14116 37-193) above, with K8R, V11I, C38A, C76A, Q103E, C127A counted along it
Sequence of IL-18 variant SEQ ID NO: 219 (V11I, C38A, K53A, C76A, G108A, C127A) (human) (Q14116 37-193 V47I/C74A/K89A/C112A/G144A/C163A): as the sequence (Q14116 37-193) above, with V11I, C38A, K53A, C76A, G108A, C127A counted along it
Sequence of IL-18 variant SEQ ID NO: 213 (V11I, S36A, C38A, K53A, C76A, C127A) (human) (Q14116 37-193 V47I/S72A/C74A/K89A/C112A/C163A): as the sequence (Q14116 37-193) above, with V11I, S36A, C38A, K53A, C76A, C127A counted along it
Sequence of IL-18 variant SEQ ID NO: 30 with 5 kDa PEG (E6K, V11I, C38A, K53A, T63A, C76A, C127A, C68-5kPEG) (human) (Q14116 other isoform, or with tags, fused parts or gaps with the stated changes): as the sequence (Q14116 37-193) above, with E6K, V11I, C38A, K53A, T63A, C76A, C127A counted along it
Sequence of IL-18 variant SEQ ID NO: 30 with 10 kDa PEG (E6K, V11I, C38A, K53A, T63A, C76A, C127A, C68-10kPEG) (human) (Q14116 other isoform, or with tags, fused parts or gaps with the stated changes): as the sequence (Q14116 37-193) above, with E6K, V11I, C38A, K53A, T63A, C76A, C127A counted along it
Sequence of IL-18 variant SEQ ID NO: 30 (E6K, V11I, C38A, K53A, T63A, C76A, C127A) (human) (Q14116 other isoform, or with tags, fused parts or gaps with the stated changes): as the sequence (Q14116 37-193) above, with E6K, V11I, C38A, K53A, T63A, C76A, C127A counted along it

IC50 (read off the curve); IFNγ secretion by NK-92 cells (IFNg AlphaLISA signal, 615 nM) [1]: 200 nM
IC50 (read off the curve); IFNγ secretion by NK-92 cells (IFNg AlphaLISA signal, 615 nM) [2]: 0.9 nM
IC50 of IL-18BPa-Fc on IFNγ secretion, NK-92 [3]: 7.52 nM
IC50 of IL-18BPa-Fc on IFNγ secretion, NK-92 [4]: 10.2 nM
IC50 of IL-18BPa-Fc on IFNγ secretion, NK-92 [5]: 47.6 nM
IC50 of IL-18BPa-Fc on IFNγ secretion, NK-92 [6]: 5.05 nM
IC50 of IL-18BPa-Fc on IFNγ secretion, NK-92 [7]: 7.85 nM
IC50 of IL-18BPa-Fc on IFNγ secretion, NK-92 [8]: 0.681 nM
IC50 of IL-18BPa-Fc on IFNγ secretion, NK-92 [9]: 6.08 nM
IC50 of IL-18BPa-Fc on IFNγ secretion, NK-92 [10]: 3.98 nM
IC50 of IL-18BPa-Fc on IFNγ secretion, NK-92 [11]: 1.81 nM
IC50 of IL-18BPa-Fc on IFNγ secretion, NK-92 [12]: 1.07 nM
IC50 of IL-18BPa-Fc on IFNγ secretion, NK-92 [13]: 0.885 nM
IC50 of IL-18BPa-Fc on IFNγ secretion, NK-92 [14]: 488 nM
IC50 of IL-18BPa-Fc on IFNγ secretion, NK-92 [15]: 67.1 nM
IC50 of IL-18BPa-Fc on IFNγ secretion, NK-92 [16]: 105 nM
IC50 of IL-18BPa-Fc on IFNγ secretion, NK-92 [17]: 1000 nM
IC50 of IL-18BPa-Fc on IFNγ secretion, NK-92 [18]: 358 nM
IC50 of IL-18BPa-Fc on IFNγ secretion, NK-92 [19]: 32.5 nM
IC50 of IL-18BPa-Fc on IFNγ secretion, NK-92 [20]: 11.4 nM
IC50 of IL-18BPa-Fc on IFNγ secretion, NK-92 [21]: 654 nM
IC50 of IL-18BPa-Fc on IFNγ secretion, NK-92 [22]: 236 nM
IC50 of IL-18BPa-Fc on IFNγ secretion, NK-92 [23]: 35.5 nM
IC50 of IL-18BPa-Fc on IFNγ secretion, NK-92 [24]: 28.1 nM
IC50 of IL-18BPa-Fc on IFNγ secretion, NK-92 [25]: 779 nM
IC50 of IL-18BPa-Fc on IFNγ secretion, NK-92 [26]: 4.29 nM
IC50 of IL-18BPa-Fc on IFNγ secretion, NK-92 [27]: 4.83 nM
IC50 of IL-18BPa-Fc on IFNγ secretion, NK-92 [28]: 143 nM
IC50 of IL-18BPa-Fc on IFNγ secretion, NK-92 [29]: 0.781 nM
Substance: Fc fused human IL-18BP isoform a (IL-18BPa) (from UniProt O95998 31-194) (Fc fusion)
